Six molecules from patent EP4019546A1 (Numab Therapeutics AG, dated 2022) can be followed below.

In assay [1] the target is T1, human IL-31 (human, UniProt Q6EBC2 24-164).
T1 sequence (looked up): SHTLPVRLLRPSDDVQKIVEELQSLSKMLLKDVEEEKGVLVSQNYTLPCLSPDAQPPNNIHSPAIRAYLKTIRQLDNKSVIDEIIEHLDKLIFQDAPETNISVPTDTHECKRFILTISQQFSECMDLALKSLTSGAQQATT
The assay can be described thus: cell-based or functional assay.

The next assay has as its target T2, cynomolgus IL-31-His (cynomolgus monkey (Macaca fascicularis), UniProt G7PJ78 24-163).
T2 construct: extracellular domain; also called cynomolgus monkey IL-31; cyno IL-31; not shown: His tag
T2 sequence: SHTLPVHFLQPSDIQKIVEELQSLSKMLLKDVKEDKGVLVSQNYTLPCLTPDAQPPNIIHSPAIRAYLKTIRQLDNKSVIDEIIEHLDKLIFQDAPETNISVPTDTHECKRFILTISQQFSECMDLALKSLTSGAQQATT
As to the kind of experiment: SPR (Biacore T200), IL-31-His captured via anti-His antibody, scFv as analyte, 1:1 model. (In general: In SPR one partner is held on a chip, and binding of the other changes the refractive index at the surface.)

The target of assay [2] is T1, human IL-31. As to the kind of experiment: cell-based or functional assay. This is another data set of the same source.

B1: PRO1900 (scFv)
chain: AFQLTQSPSSLSASVGDRVTITCQASQSIDSWLAWYQQKPGKPPKLLIYQASKLASGVPSRFSGSGSGTDYTLTISSLQPEDFATYYCQTYYGGGHIGWGFGTGTKVTVLGGGGGSGGGGSGGGGSGGGGSQSQLVESGGGRVQPGGSLRLSCAASGFSFSANYWICWVRQAPGKGLEWIVCIYIGSRADTYYAPWAKGRFTISKDNSKNTVYLQMNSLRAEDTATYFCARFSSGIYDLDRFFLWGQGTQVTVSS
Regarding B1, in the assay with human IL-31 [1], the “IC50, neutralization of hIL-31-induced signaling in IL-31RA/OSMR dimerization assay” value was determined as 8.21 ng/mL.

B2: PRO1903 (scFv)
chain: AFQLTQSPSSLSASVGDRVTITCQASQSIESWLAWYQQKPGKPPKLLIYQASKLASGVPSRFSGSGSGTDYTLTISSLQPEDFATYYCQTYYGGGHIGWGFGTGTKVTVLGGGGGSGGGGSGGGGSGGGGSQSQLVESGGGLVQPGGSLRLSCAASGFSFSANYWICWVRQAPGKGLEWIVCIYIGSRADTYYAPWAKGRFTISKDNSKNTVYLQMNSLRAEDTAVYFCARFSSGIYDLDRFFLWGQGTLVTVSS
Regarding B2, in the assay with cynomolgus IL-31-His, binding was characterised by a dissociation constant (Kd) of 1.39 nM, the koff was 0.000605 s⁻¹ and the kon is 434000 M⁻¹ s⁻¹. In addition, the “IC50, neutralization of hIL-31-induced signaling in IL-31RA/OSMR dimerization assay” value with human IL-31 [1] turned out to be 7.98 ng/mL.

B3: PRO1901 (scFv)
chain: AFQLTQSPSSLSASVGDRVTITCQASQSIDSWLAWYQQKPGKPPKLLIYQASKLASGVPSRFSGSGSGTDYTLTISSLQPEDFATYYCQTYYGGGHIGWGFGTGTKVTVLGGGGGSGGGGSGGGGSGGGGSQSQLVESGGGSVQPGGSLRLSCAASGFSFSANYWICWVRQAPGKGLEWIVCIYIGSRADTYYAPWAKGRFTISKDNSKNTVYLQMNSLRAEDTATYFCARFSSGIYDLDRFFLWGQGTQVTVSS
In the assay with cynomolgus IL-31-His, B3 had a Kd of 1.14 nM, a dissociation rate constant (koff) of 0.000569 s⁻¹ and a kon of 501000 M⁻¹ s⁻¹. In addition, in the assay with human IL-31 [1], the “IC50, neutralization of hIL-31-induced signaling in IL-31RA/OSMR dimerization assay” value was 8.07 ng/mL.

B4: PRO1902 (scFv)
chain: AFQLTQSPSSLSASVGDRVTITCQASQSIDSWLAWYQQKPGKPPKLLIYQASKLASGVPSRFSGSGSGTDYTLTISSLQPEDFATYYCQTYYGGGHIGWGFGTGTKVTVLGGGGGSGGGGSGGGGSGGGGSQSQLVESGGGLVQPGGSLRLSCAASGFSFSANYWICWVRQAPGKGLEWIVCISIGSRADTYYAPWAKGRFTISKDNSKNTVYLQMNSLRAEDTAVYFCARFSSGIYDLDRFFLWGQGTLVTVSS
Consider B4, for which, in the assay with cynomolgus IL-31-His, the Kd was 3.38 nM, the koff worked out at 0.00247 s⁻¹ and the kon is 731000 M⁻¹ s⁻¹. For the same molecule, in the assay with human IL-31 [1], the “IC50, neutralization of hIL-31-induced signaling in IL-31RA/OSMR dimerization assay” value turned out to be 371 ng/mL.

B5: PRO2198 (bispecific antibody)
chain 1: DIQMTQSPSSLSARVGDRVTITCQASEDIESYLAWYQQKPGKAPKLLIYRASTLAYGVPSRFSGSGSGRDFTLTISSLQPEDFATYYCLGSSYSTGSNIFGQGTKVEIKRTVAAPSVFIFPPSDEQLKSGTASVVCLLNNFYPREAKVQWKVDNALQSGNSQESVTEQDSKDSTYSLSSTLTLSKADYEKHKVYACEVTHQGLSSPVTKSFNRGEC
chain 2: not shown
Turning to B5, the “Mean IC50, neutralization of human IL-31-induced signaling in IL-31RA/OSMR dimerization assay” value with human IL-31 [2] came out at 0.198 nM.

B6: PRO2199 (bispecific antibody)
chain 1: not shown
chain 2: DIQMTQSPSSLSASVGDRVTITCQASEDIESYLAWYQQKPGKAPKLLIYRASTLAYGVPSRFSGSGSGTDFTLTISSLQPEDFATYYCLGSSYSTGSNIFGQGTKVEIKRTVAAPSVFIFPPSDEQLKSGTASVVCLLNNFYPREAKVQWKVDNALQSGNSQESVTEQDSKDSTYSLSSTLTLSKADYEKHKVYACEVTHQGLSSPVTKSFNRGEC
As for B6, the “Mean IC50, neutralization of human IL-31-induced signaling in IL-31RA/OSMR dimerization assay” value in the assay with human IL-31 [2] is 0.142 nM.

What is called Kd is the concentration at which binding is half-saturated. What is called koff is the rate constant with which the complex falls apart. The term kon denotes the rate constant with which the complex forms.
